± gives the uncertainty stated by the source.
Assay: self-splicing fitness, log relative to wild type (ln ratio); higher = more splicing; Tetrahymena group I intron in knt gene, E. coli kanamycin selection, DiMSum; sequences stand for … in CUCUCU…GGAGGGAAAAGUUAUCAGGCAUGCACCUGGUAGCUAGUCUUUAAACCAAUAGAUUGCAUCGGUUUAAAAGGCAAGACCGUCAAAUUGCGGGAAAGGGGUCAACAGCCGUUCAGUACCAAGUCUCAGGGGAAACUUUGAGAUGGCCUUGCAAAGGGUAUGGUAAUAAGCUGACGGACAUGGUCCUAACCACGCAGCCAAGUCCUAAGUCAACAGAUCUUCUGUUGAUAUGGAUGCAGUUCACAGACUAAAUGUCGGUCGGGGAAGAUGUAUUCUUCUCAUAAGAUAUAGUCGGACCUCUCCUUAAUGGGAGCUAGCGGAUGAAGUGAUGCAACACUGGAGCCGCUGGGAACUAAUUUGUAUGCGAAAGUAUAUUGAUUAGUUUUGGAGUACUCGUGGUCG
Method in brief: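 Fitness was computed with DiMSum as the error-weighted combination of replicate fold changes, kanamycin versus none, each normalised to wild type. The library randomised all eight intron nucleotides of the P1ex region, with the intron placed in the knt kanamycin-resistance gene on pET-22b(+) in E. coli BL21(DE3). Six replicate transformations were grown overnight at 37°C or 30°C on LB agar with or without 25 μg/mL kanamycin, plus 100 μg/mL carbenicillin, 50 μM IPTG and 0.2% rhamnose. Pooled colonies were amplicon-sequenced on an Illumina HiSeq 2500.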

Sequence	self-splicing fitness (ln) (37 °C)	self-splicing fitness (ln) (30 °C)
UGAGAGCAAUAUUACGGGGU	-2.4 ± 0.48	
UCAUAGCAAUAUUACGUUAG	-1.66 ± 0.19	-2.9 ± 0.25
UCCAAGCAAUAUUACGGCCC	-1.45 ± 0.32	
AGGCAGCAAUAUUACGCUUG	-2.12 ± 0.23	-2.81 ± 0.17
CUUCAGCAAUAUUACGUGCU	-2.6 ± 0.13	-3.07 ± 0.12
GCAAAGCAAUAUUACGGUUA	-0.429 ± 0.076	-0.938 ± 0.08
UAUCAGCAAUAUUACGGCCU	0.0592 ± 0.12	-1.64 ± 0.1
UAGCAGCAAUAUUACGUGGC	-2.12 ± 0.21	-4.18 ± 0.26
UGGCAGCAAUAUUACGCGGC	-2.23 ± 0.26	-4.17 ± 0.29
ACAUAGCAAUAUUACGGUGA	-0.247 ± 0.086	-0.929 ± 0.066
GAGUAGCAAUAUUACGCAUU	-2.07 ± 0.12	-3.07 ± 0.13
UAAAAGCAAUAUUACGUUAU	-2.41 ± 0.13	-3.59 ± 0.16
UUCCAGCAAUAUUACGUAGU	-1.57 ± 0.12	-1.32 ± 0.093
GAGAAGCAAUAUUACGAGAG	-1.91 ± 0.22	-2.86 ± 0.23
UGGAAGCAAUAUUACGACGG	-0.14 ± 0.084	-0.691 ± 0.065
GGUUAGCAAUAUUACGACGC	0.289 ± 0.16	0.551 ± 0.17
GGGAAGCAAUAUUACGUAAA	-1.56 ± 0.3	-1.53 ± 0.21
CCGGAGCAAUAUUACGACAU	-3.02 ± 0.045	-3.816 ± 0.032
UGGGAGCAAUAUUACGGCAG	-1.34 ± 0.17	-3.28 ± 0.21
CUAAAGCAAUAUUACGGUUU	-2.81 ± 0.28	-3.29 ± 0.2
GCGCAGCAAUAUUACGUGCA	-0.706 ± 0.08	-2.09 ± 0.096
GACCAGCAAUAUUACGGGGC	-2.14 ± 0.15	-2.78 ± 0.18
UGGAAGCAAUAUUACGUCAU	-3.01 ± 0.3	-2.99 ± 0.35
UCGGAGCAAUAUUACGUAUU	-2.34 ± 0.15	-4.15 ± 0.18
ACCGAGCAAUAUUACGACGU	-0.637 ± 0.11	-2.04 ± 0.1

Sequence	self-splicing fitness (ln) (37 °C)	self-splicing fitness (ln) (30 °C)
CAGCAGCAAUAUUACGCCGG	-0.31 ± 0.098	-0.792 ± 0.09
AUUAAGCAAUAUUACGAUCU	-0.0178 ± 0.16	0.226 ± 0.12
CUCUAGCAAUAUUACGGAUA	-2.71 ± 0.22	-3.57 ± 0.24
CUCCAGCAAUAUUACGCCGG	-2.98 ± 0.24	-3.83 ± 0.26
CCUCAGCAAUAUUACGCGGG	-2.34 ± 0.29	-4.06 ± 0.28
CGCCAGCAAUAUUACGGUAG	-2.03 ± 0.18	-2.51 ± 0.11
UCACAGCAAUAUUACGUCUC	-1.77 ± 0.2	-3.42 ± 0.25
CGAGAGCAAUAUUACGGGUU	-2.27 ± 0.5	
CUUUAGCAAUAUUACGAGAU	-2.57 ± 0.22	-3.83 ± 0.23
UCUGAGCAAUAUUACGCACA	-1.23 ± 0.49	
GGACAGCAAUAUUACGCAAU	0.311 ± 0.11	-0.155 ± 0.13
UAGCAGCAAUAUUACGUAGG	-1.35 ± 0.1	-1.62 ± 0.082
GUAGAGCAAUAUUACGAACU	-0.867 ± 0.24	-1.19 ± 0.23
GGGAAGCAAUAUUACGCGCU	-0.954 ± 0.27	-2.66 ± 0.28
UUUCAGCAAUAUUACGCGUC	-2.01 ± 0.14	-3.56 ± 0.15
CCAUAGCAAUAUUACGUGUC	-2.45 ± 0.23	-3.89 ± 0.2
CCGGAGCAAUAUUACGUCUC	-2.69 ± 0.39	-3.22 ± 0.31
GUGAAGCAAUAUUACGCUGG	-0.76 ± 0.13	-1.42 ± 0.12
UAGGAGCAAUAUUACGAGGU	-2.42 ± 0.32	
AUGAAGCAAUAUUACGUUCC	-0.0585 ± 0.11	-0.618 ± 0.086
GUUUAGCAAUAUUACGUAUU	-1.38 ± 0.17	-2.91 ± 0.21
AGAGAGCAAUAUUACGCGAC	-1.87 ± 0.39	-2.11 ± 0.34
CGUAAGCAAUAUUACGAGAU	-2.55 ± 0.41	-4.04 ± 0.47
UUCGAGCAAUAUUACGGCAA	-0.26 ± 0.12	-0.587 ± 0.099

Reference: the supplement of paper PMC7877785
